Results on four molecules are retold here after article PMC5749176.

For one data set, the target named is GR-DBD (human, UniProt P04150 418-506). Put plainly: EMSA.
Another data set deals with AR-DBD (human, UniProt P10275 557-647). Put plainly: EMSA.
Sequence of AR-DBD (P10275 557-647): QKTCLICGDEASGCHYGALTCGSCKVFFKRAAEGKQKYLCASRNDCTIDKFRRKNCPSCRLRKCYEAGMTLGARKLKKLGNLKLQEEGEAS

Sequence of GR-DBD (P04150 418-506): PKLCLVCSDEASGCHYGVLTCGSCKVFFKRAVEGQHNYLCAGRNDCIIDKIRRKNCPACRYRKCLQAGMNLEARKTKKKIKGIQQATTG

B1: Shape-4 (dsDNA)
DNA 1: GGGCGTTCGGGACATAATGGCGGGAACCCCC
DNA 2: GGGGGTTCCCGCCATTATGTCCCGAACGCCC
Take B1: in the data set with GR-DBD, the binding result was “binds”.

B2: Shape-3 (dsDNA)
DNA 1: AAACAAAAAGAACACCGTTTTATTTTGGTGT
DNA 2: ACACCAAAATAAAACGGTGTTCTTTTTGTTT
For the molecule B2, the binding result in the data set with AR-DBD was “binds”.

B3: Shape-1 (dsDNA)
DNA 1: GGCCAAAAAGAACACCGTGTACTTTTGGGCT
DNA 2: AGCCCAAAAGTACACGGTGTTCTTTTTGGCC
With B3, the binding result in the data set with AR-DBD is “binds”.

B4: Shape-2 (dsDNA)
DNA 1: GGGCGGAGGGTACACCGTGTACTCTTCCCCC
DNA 2: GGGGGAAGAGTACACGGTGTACCCTCCGCCC
Take B4: the binding result with AR-DBD is reported as “binds”.
